Results on one molecule are retold here after PMC13419597, “An Acetylation-Primed SUMOylation Switch Controls RORβ Stability through a p300-SIRT1 Regulatory Axis” (Research Square, 2024).

The assay addresses T1, His-HA-RORβ (isoform 1) (human, UniProt Q92753-1 1-459).
T1 construct: Retinoic acid receptor-related orphan receptor beta (RORβ), human, isoform 1 (RORβ1); the printed residue numbers (K11 to K459 at the C-terminus of the LBD) fit the 459-residue form; Same plasmid used in TC28a2 (RIME) and HEK293T (co-IP, IP-MS); also called HA-tagged RORβ; RORβ WT; source: TC28a2 or HEK293T, transiently transfected (pCMV6), in lysate
T1 sequence (looked up): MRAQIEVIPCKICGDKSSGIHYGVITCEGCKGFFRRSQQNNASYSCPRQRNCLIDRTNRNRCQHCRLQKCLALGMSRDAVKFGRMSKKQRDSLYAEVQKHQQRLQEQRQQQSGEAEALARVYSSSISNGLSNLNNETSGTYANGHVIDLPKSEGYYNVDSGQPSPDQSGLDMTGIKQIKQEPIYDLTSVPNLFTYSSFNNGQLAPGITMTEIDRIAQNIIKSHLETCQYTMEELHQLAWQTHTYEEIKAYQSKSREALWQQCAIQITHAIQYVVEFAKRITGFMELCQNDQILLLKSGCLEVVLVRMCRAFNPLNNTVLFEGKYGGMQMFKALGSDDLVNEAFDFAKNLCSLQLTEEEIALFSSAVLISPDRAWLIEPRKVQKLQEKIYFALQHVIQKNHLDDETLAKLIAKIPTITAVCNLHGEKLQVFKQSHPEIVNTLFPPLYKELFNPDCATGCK
Briefly: affinity purification with mass spectrometry; RIME: HA-RORβ transfected in TC28a2 chondrocytes, 1% formaldehyde crosslinking in cells, nuclear lysate, anti-HA magnetic beads, HA-peptide-blocked control; also with SIRT1 activator SRT2104 against DMSO. To be noted: partners not purified.

B1: PIAS1, endogenous in TC28a2 (enzyme, human (endogenous in TC28a2), UniProt O75925 1-651, looked up)
chain: MADSAELKQMVMSLRVSELQVLLGYAGRNKHGRKHELLTKALHLLKAGCSPAVQMKIKELYRRRFPQKIMTPADLSIPNVHSSPMPATLSPSTIPQLTYDGHPASSPLLPVSLLGPKHELELPHLTSALHPVHPDIKLQKLPFYDLLDELIKPTSLASDNSQRFRETCFAFALTPQQVQQISSSMDISGTKCDFTVQVQLRFCLSETSCPQEDHFPPNLCVKVNTKPCSLPGYLPPTKNGVEPKRPSRPINITSLVRLSTTVPNTIVVSWTAEIGRNYSMAVYLVKQLSSTVLLQRLRAKGIRNPDHSRALIKEKLTADPDSEIATTSLRVSLLCPLGKMRLTIPCRALTCSHLQCFDATLYIQMNEKKPTWVCPVCDKKAPYEHLIIDGLFMEILKYCTDCDEIQFKEDGTWAPMRSKKEVQEVSASYNGVDGCLSSTLEHQVASHHQSSNKNKKVEVIDLTIDSSSDEEEEEPSAKRTCPSLSPTSPLNNKGILSLPHQASPVSRTPSLPAVDTSYINTSLIQDYRHPFHMTPMPYDLQGLDFFPFLSGDNQHYNTSLLAAAAAAVSDDQDLLHSSRFFPYTSSQMFLDQLSAGGSTSLPTTNGSSSGSNSSLVSSNSLRESHSHTVTNRSSTDTASIFGIIPDIISLD
notes: E3 SUMO-protein ligase PIAS1, endogenous in TC28a2 human chondrocytes; source: endogenous, TC28a2 nuclear lysate
Consider B1, for which the “log2 fold change of PIAS1 in RORβ immunoprecipitates, SRT2104 against DMSO” value is ~-0.4 log2 fold change (SRT2104/DMSO).
